From the supplement of paper PMC9112550, “Optimization of the antimicrobial peptide Bac7 by deep mutational scanning” (BMC Biology, 2022)

The sequences below were run on Escherichia coli TOP10 (assay: shrunken log2 fold change of peptide-encoding DNA abundance (4.5 h post-induction vs induction); higher = less antimicrobial activity (less host growth inhibition)). Conditions: time post-induction: 4.5 h; library: site-saturation at positions 5, 18, 19, 20.
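Note: peptides expressed intracellularly from a pBAD plasmid library in pooled LB shake-flask culture, induced with 0.3% L-arabinose, DNA abundance read by NGS, three biological replicates, DESeq2 with apeglm shrinkage.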

In order of rising “shrunken log2 fold change” value:
1. RRIRYRPPRLPRPRPRPNIQPRP  -1.58
2. RRIRRRPPRLPRPRPRPCKYPRP  -0.915
3. RRIRKRPPRLPRPRPRPYSKPRP  -0.608
4. RRIRPRPPRLPRPRPRPSYFPRP  -0.514
5. RRIRERPPRLPRPRPRPMNPPRP  -0.488
6. RRIRPRPPRLPRPRPRPFWNPRP  -0.478
7. RRIRVRPPRLPRPRPRPHVHPRP  -0.45
8. RRIRFRPPRLPRPRPRPCNHPRP  -0.41
9. RRIRLRPPRLPRPRPRPYDEPRP  -0.353
10. RRIRDRPPRLPRPRPRPTVPPRP  -0.326
11. RRIRIRPPRLPRPRPRPECNPRP  -0.324
12. RRIRLRPPRLPRPRPRPYVEPRP  -0.322
13. RRIRIRPPRLPRPRPRPEGFPRP  -0.321
14. RRIRDRPPRLPRPRPRPNIYPRP  -0.3
15. RRIRHRPPRLPRPRPRPCHNPRP  -0.261
16. RRIRNRPPRLPRPRPRPAYAPRP  -0.236
17. RRIRTRPPRLPRPRPRPDNFPRP  -0.231
18. RRIRPRPPRLPRPRPRPNHTPRP  -0.21
19. RRIRVRPPRLPRPRPRPYHLPRP  -0.184
20. RRIRSRPPRLPRPRPRPCKIPRP  -0.177
21. RRIRNRPPRLPRPRPRPWSIPRP  -0.16
22. RRIRSRPPRLPRPRPRPHWHPRP  -0.124
23. RRIRSRPPRLPRPRPRPPNMPRP  -0.118
24. RRIRSRPPRLPRPRPRPFNFPRP  -0.112
25. RRIRDRPPRLPRPRPRPFHAPRP  -0.108
26. RRIRVRPPRLPRPRPRPCCWPRP  -0.087
27. RRIRMRPPRLPRPRPRPMAHPRP  -0.0858
28. RRIRIRPPRLPRPRPRPWHWPRP  -0.0771
29. RRIRPRPPRLPRPRPRPHRKPRP  -0.0741
30. RRIRGRPPRLPRPRPRPHMPPRP  -0.0535
31. RRIRQRPPRLPRPRPRPHICPRP  -0.049
32. RRIRYRPPRLPRPRPRPNTEPRP  -0.0461
33. RRIRMRPPRLPRPRPRPWVDPRP  -0.034
34. RRIRERPPRLPRPRPRPGRSPRP  -0.032
35. RRIRPRPPRLPRPRPRPCVLPRP  -0.0304
36. RRIRTRPPRLPRPRPRPVMGPRP  -0.0279
37. RRIRTRPPRLPRPRPRPQLTPRP  -0.0274
38. RRIRYRPPRLPRPRPRPDLHPRP  -0.0267
39. RRIRYRPPRLPRPRPRPEHNPRP  -0.0212
40. RRIRYRPPRLPRPRPRPMTEPRP  -0.0202
41. RRIRTRPPRLPRPRPRPDQYPRP  -0.0122
42. RRIRNRPPRLPRPRPRPIVMPRP  -0.0105
43. RRIRPRPPRLPRPRPRPLVSPRP  0.00371
44. RRIRKRPPRLPRPRPRPQVFPRP  0.00956
45. RRIRQRPPRLPRPRPRPGYFPRP  0.0104
46. RRIRNRPPRLPRPRPRPKEEPRP  0.0169
47. RRIRARPPRLPRPRPRPCFKPRP  0.0174
48. RRIRVRPPRLPRPRPRPGACPRP  0.0218
49. RRIRNRPPRLPRPRPRPVGYPRP  0.025
50. RRIRDRPPRLPRPRPRPERPPRP  0.0268
51. RRIRDRPPRLPRPRPRPCDDPRP  0.0345
52. RRIRSRPPRLPRPRPRPAEKPRP  0.0409
53. RRIRGRPPRLPRPRPRPYVAPRP  0.0436
54. RRIRDRPPRLPRPRPRPSEAPRP  0.0437
55. RRIRERPPRLPRPRPRPSDWPRP  0.0574
56. RRIRGRPPRLPRPRPRPVSSPRP  0.0973
57. RRIRVRPPRLPRPRPRPTAEPRP  0.0994
58. RRIRDRPPRLPRPRPRPNMVPRP  0.136
59. RRIRGRPPRLPRPRPRPIECPRP  0.146
60. RRIRVRPPRLPRPRPRPEPLPRP  0.204
61. RRIRVRPPRLPRPRPRPVMGPRP  0.216
62. RRIRVRPPRLPRPRPRPQLFPRP  0.229
63. RRIRVRPPRLPRPRPRPTHIPRP  0.268
64. RRIRARPPRLPRPRPRPTDLPRP  0.274
65. RRIRDRPPRLPRPRPRPFRWPRP  0.317
66. RRIRLRPPRLPRPRPRPPAVPRP  0.341
67. RRIRWRPPRLPRPRPRPLDDPRP  0.454
68. RRIRARPPRLPRPRPRPSRTPRP  0.471
69. RRIRWRPPRLPRPRPRPTPLPRP  0.557
70. RRIRWRPPRLPRPRPRPKTRPRP  0.654
71. RRIRARPPRLPRPRPRPGAHPRP  0.669
72. RRIRKRPPRLPRPRPRPAGCPRP  0.702
73. RRIRRRPPRLPRPRPRPEAGPRP  0.731
74. RRIRRRPPRLPRPRPRPRAAPRP  0.833
75. RRIRGRPPRLPRPRPRPGVDPRP  0.951
